Measurements as given in patent publication US20180271960A1, “METHOD TO TREAT CANCER USING ARGININE DELPETOR AND ORNITHINE DECARBOXYLASE (ODC) INHIBITOR” (Bio-Cancer Treatment International Ltd., priority 2015, published 2018).

B1: PEG-BCT-100: pegylated recombinant human arginase I (SEQ ID NO.1, or SEQ ID NO.3 with six histidines), about 6-12 PEG molecules per arginase (protein, UniProt P05089 1-322, looked up)
Arginase-1: MSAKSRTIGIIGAPFSKGQPRGGVEEGPTVLRKAGLLEKLKEQECDVKDYGDLPFADIPNDSPFQIVKNPRSVGKASEQLAGKVAEVKKNGRISLVLGGDHSLAIGSISGHARVHPDLGVIWVDAHTDINTPLTTTSGNLHGQPVSFLLKELKGKIPDVPGFSWVTPCISAKDIVYIGLRDVDPGEHYILKTLGIKYFSMTEVDRLGIGKVMEETLSYLLGRKKRPIHLSFDVDGLDPSFTPATGTPVVGGLTYREGLYITEEIYKTGLLSGLDIMEVNPSLGKTPEEVTRTVNTAVAITLACFGLAREGNHKPIDYLNPPK
modifications: PEG, about 6-12 per arginase; optional His6 tag

Key:
[1] = test system: Hep G2 hepatocellular carcinoma xenograft; assay: Hep G2 hepatocellular carcinoma xenograft model; assay type: in vivo, mouse; settings: PEG-BCT-100 20 mg/kg IV twice a week, DFMO 2% w/v in drinking water
Protocol: In one example embodiment, the Hep G2 human liver cancer cells are maintained in vitro culture in RPMI1640 medium supplemented with 10% fetal bovine serum at 37° C. in an atmosphere of 5% CO2 in air. The tumour cells are routinely sub-cultured twice weekly. The cells in an exponential growth phase are harvested and counted for tumour inoculation.
Each mouse is inoculated subcutaneously at the right flank region with Hep G2 tumour cells (1×10^7) in 0.2 ml of PBS (1:1 Matrigel) for tumour development. The treatments start when the mean tumour volume reaches 124 mm^3. The date of tumour cell inoculation is denoted as day 0.
Four treatment groups of animals, with eight animals in each group, are tested. Control group (negative control) receives physiological saline, and the three treatment groups respectively receive 20 mg/kg of PEG-BCT-100 alone, 2% w/v DFMO in drinking water, and combination of 20 mg/kg of PEG-BCT-100 and 2% w/v DFMO. PEG-BCT-100 is administered intravenously, twice a week, until euthanization while DFMO is supplied in drinking water at 2% w/v.

[2] = test system: H23 lung adenocarcinoma cell line; assay: MTT assay, growth inhibition of H23 cell line; assay type: cell-based; settings: 48 h and 72 h at 0.5 ng/μl and 10 ng/μl
Protocol: (§1) The inhibition ratio (IR) and the half maximal inhibitory concentration (IC50) values are determined by a MTT assay.

[3] = test system: HCC2935 lung adenocarcinoma cell line; assay: MTT assay, growth inhibition of HCC2935 cell line; assay type: cell-based; settings: 72 h at 10 ng/μl only
Protocol: as §1

Molecule	anti-tumour effect [1]	growth inhibition effect (cell proliferation) [2]	growth inhibition effect (cell proliferation / toxicity) [3]
NCCC[C@](N)(C(=O)O)C(F)F [DFMO, α-difluoromethylornithine, reference compound]	significant anti-tumour effect		
B1		inhibits H23 lung adenocarcinoma cell line proliferation more effectively than ADI	induces toxicity in HCC2935 lung adenocarcinoma cell line
